The source of these data is the DeepSol protein solubility set.

The series in a line: soluble on expression in E. coli; label from the status in PepcDB or PDB records.
Regarding “MGSDKIHHHHHHMWYMRWEGVSDGLKVTAGSVIQRDDLVQYTTTDDATSSGGVLRVPIACSSAGAVGNADDGTALILVTPVNGLPSSGVADTLTGGFDTEELETWRARVIERYYWTPQGGADGDYVVWAKEVPGITRAWTYRHLMGTGTVGVMIASSDLINPIPEESTETAARQHIGPLAPVAGSDLYVFRPVAHTVDFHIRVTPDTPEIRAAITAELRSFLLRDGYPQGELKVSRISEAISGANGEYSHQLLAPVDNISIAKNELAVLGTISWT”, the “soluble on expression in E. coli” value is recorded as “not soluble”.

As to “SRLSIDLYPKIETSNIMVVTSYAGASASDIENNVTKVLENTLNGVSNLKHITSKSRENASVITLQFNEGVDIEVATNDVRDKLDAVSNFLPDDVNKPMIFKFGTDDIPITMLSVQAKESTMALSKILEDKVTNALARLDGVGAVSIMGTVKREIQVYCDPAKLEAYNLTVEAVSQIISAENKNVPAGLIDLGNKTSSIRIQGEFADARQLNQIVVASVGGRNVYLSDVARVEDTHAENEQESYNNNVRGAMIMINKQSGANSVAISRAVRGALPEIQASLPSDVELGTIFDTSDNIVNTINSLRD”, the “soluble on expression in E. coli” value is “not soluble”.

Consider “MKEKKKEIEKLLARPDLTPEQMKNYGMEYAKIEEIENITNRIKETQEFIELLREEGENELEIEKYEKELDQLYQELLFLLSPEASDKAIVEIRPGTGGEEAALFARDLFRMYTRYAERKGWNLEVAEIHETDLGGIREVVFFVKGKNAYGILKYESGVHRVQRVPVTESGGRIHTSTATVAVLPEIEEKDIEIRPEDLKIETFRASGHGGQYVNKTESAVRITHLPTGIVVSCQNERSQYQNKQTALRILRARLYQLQKEQKEREISQKRKSQIGTGERSEKIRTYNFPQNRVTDHRINYTSYRLQEILDGDLDEIISKLIEHDIENNLEEVLGIGASVEEK”, for which the “soluble on expression in E. coli” value is reported as “soluble”.

With “MSLNVIDTLPAFRDYCSELASSHGSLAADAERASGFRYGHEDWLVQFKRDGAGIGLLDPQALAAAGADWNDFNRAVGDAVWILHDSLQDLPGFDELGMEPQRLFDTEIAARLLGLKRFGLAAVTEHFLGLTLAKEHSAADWSYRPLPRDWRNYAALDVELLIELETKMRAELKRQGKMEWAQEEFDYALKEGLGPRKEHLIPWMHVSHITEVMRDRQALAIVRALWTRRDELAREYDIAPTLLLSDSSIIEVAKRKPHNAAQFRSIRSINERVRIHTDSEQDKMFERYAPIQRKIKPSMWKNIIQDALALPPSEWPDVDGGAARRHESQSASAPKSIRVWKERYPERLQVLNRVRKAVSQIAEDTRTPVEIVIKPQYLRNLCWTDEPRKRDVARFLSEQGARDWQVSLVAESVSRAIEGHHHHHH”, the “soluble on expression in E. coli” value is “not soluble”.

For the sequence “MKFGKTIAVVLASSVLLAGCTTDKKEIKAYLKQVDKIKDDEEPIKTVGKKIAELDEKKKKLTEDVNSKDTAVRGKAVKDLIKNADDRLKEFEKEEDAIKKSEQDFKKAKSHVDNIDNDVKRKEVKQLDDVLKEKYKLHSDYAKAYKKAVNSEKTLFKYLNQNDATQQGVNEKSKAIEQNYKKLKEVSDKYTKVLNKVGKEKQDVDQFK”, the “soluble on expression in E. coli” value was “soluble”.

Turning to “MVADNSEKSTKSVANGSLISTVSSKDDLPNAIIVTQVPEDVFDNKQDKANFSSLFTQIEKDIHFDFLRSFRRVRVIFSSPENATAAKLIVQGFSFKGHELKAFFAQRIYMSANSQMLSPPPLEKQFLISPPCSPPVGWEQTKDMPPVVCNFDLMARLASFAIDEKYEVHNGDELTPAIIVHPCETPIDVPSAIEMPRTPRPSSPCEQ”, the “soluble on expression in E. coli” value is listed as “not soluble”.

In the case of “MGSDKIHHHHHHMMVPHLTTALTGPLLTLEKRLLDNMPRIEHWFRSQWQEYGAPFYASVDLRNAGFKLAPVDTNLFPGGFNNLNPDFLPLCIQAAMVAVEKICPDARRLLLIPENHTRNTFYLRNVHALTHILRQAGLEVRIGSIAPEITAPTFLETHDGHSILLEPVRRKANRLELDNFDSCAILLNNDLSGGIPDILQGLEQSLIPPLHAGWATRRKSNHFTAYDRVVEEFAPLIDIDPWLLNPYFDTCGGLDFHARLGEEQLAEKVDSLLAKIRRKYAEYGVKQEPFVIVKADAGTYGMGIMTVKSADDVRDLNRKQRNKMSVVKEGLKVSEVILQEGVYTFEHLKDAVAEPVIYMMDHFVVGGFYRVHTSRGADENLNAPGMHFEPLTFETPCSTPDCAGAPDAAPNRFYAYGVVARLALLAATIELQETDPDLLDERT”, the “soluble on expression in E. coli” value was “not soluble”.

In the case of “MGSDKIHHHHHHVHLTYENTNEEIIAVKRKPRHQPPHLHNAMEIVCVTKGTLELGVGQELYHMETGDIGVVFPDVIHHYQVFSSEVNEAVFINAPQMIFGRFENVLRNNAPQYPVVKSDVIPDEVYRAVESIIDTGQNDIWVVQAYLQIILARCIPMMKLVEKSKIGSDDIIYRTVSYISANFNKSISLDGMAHDLGVSKFSLSRLFSKTFHSSFNQYVNEARLGYACQRIETTDDTLTEISMDSGFGSLRTFNRVFKEKYRLTPSEYRNKLQI”, the “soluble on expression in E. coli” value is recorded as “not soluble”.

“ADTPGEATPPPRKKKDIRDYNDADMARLLEQWEKDDDIEEGDLPEHKRPSAPIDFSKLDPGKPESILKMTKKGKTLMMFVTVSGNPTEKETEEITSLWQGSLFNANYDVQRFIVGSDRAIFMLRDGSYAWEIKDFLVSQDRCAEVTLEGQMYPGKGGGSKEKNKTKPEKAKKKEGDPKPRASKEDNRAGSRREDL”: the “soluble on expression in E. coli” value is given as “soluble”.

Take “MANECRSLRNMETDGFQVVTEVVTHKLNHIPIFKGDFASLSPKVQRFVAEKAELMNPAGIYICDGSQKEYDDIVDKLVERGVLTPLKAYENNYLCRTDPRDVARVESKTWMVTKDKYDSVCHTPDGVRPIMGQWMSEEQFGVELDSRFPGCMAGRPMYVVPYSMGPIGGPLSKNGIELTDSPYVVLCMRTMTRMGTKVLEALGDNDFVRCIHSVGLPRPVKQKVINHWPCNPEKVMIAHRPKEREIWSFGSGYGGNSILGKKCFALRIACNIGRDEGWLAEHMLIMGVTNPEGEEKFIAAAFPSACGKTNLAMLTPTVPGWKVRVVGDDIAWMKFGADGRLYAINPEAGFFGVAPGTSHKTNAMAMESCRANTIFTNVAETADGEYFWEGLEKELKEAKGYTDEQLKHLEITNWLGERWHIGDEGKAAHPNSRFTAPAKQCPNIHPDWEAPQGVPIDAIVFGGRRPEGVPLVFESFSWEHGILVGALVKSETTAAAEFTGKNVMHDPMAMRPFMGYNYGKYLEHWIKLGKAPHKAPKIFHVNWFRETKDHKFLWPGFGDNIRVLDWILRRVAGGEEEIAIETAIGYVPKRGTINLDGLPRIDWNDLMSIPKDYWVEDVDESRHFLDTQVGSDLPQPIRDELDKLEKRVHAL”: the “soluble on expression in E. coli” value is recorded as “not soluble”.

In the case of “MSLARFFQPKKHSTLDTKHQPVTIERLDHQGSGLAFLHKKPLFVDGALPGEEVLIQLTENKSKYARGQLIKVLKPSAERVAPFCAHYAQCGGCDLQHLDRAGQIHHKQQALSQLMVKFAGQSLALSAPVCSDDQGYRRRARLSLMWDKKTQQLQLGFRRKQSKAIVNVTHCPVLEPSLNALLPDLNALLSEWSQPERLGHVELVKGDNTRVLVLRHLGALIEQDQQRLTDFASQNQLTLYLMLEAGELQHVQGEAPYCEETGSRLSFLPSHFIQVNRAVNQHMVVQALNWLEVSPQERVLDLFCGLGNFTLPLAKQAQAVVGVEGVDEMVQHATHNAKLNQINNVAFYQANLEQDMTSASWAQQKFAKVLLDPARAGAEGIVDQLSALGAKRVVYVSCNPATLARDSQSLLSQGFRLEKLGMLDMFPHTSHLESMALFVKKGEGHHHHHH”, the “soluble on expression in E. coli” value is given as “soluble”.

For “IASPQAGMAALTGTLAGTRQGMISFTQQNEQEADRIGIQVLQRAGFDPQAMPSFLEKLLDQARYSTRPPEILLTHPLPESRLADARNRANQMRPVVVQSSADFYFAKARALGMYNSGRNQLTSDLLDQWSKGNVHQQHAAQYGRALQAMEASKYDEARKTLQPLLSAEPNNAWYLDLATDIDLGQKRANDAINRLKNARDLRVNPVLQLNLANAYLQGGQPKAAETILNRYTFSHKDDGNGWDLLAQAEAALNNRDQELAARAESYALAGRLDQAISLLSSASAQAKLGCQQQARYDARIDQLRQLQERFKPYTK”, the “soluble on expression in E. coli” value is “not soluble”.

Take “MSLAEIAYITAKADLPFWDTVGKGVKAVAEANGYAFSELDSKLSAEMQLNNVRQAIDRRVAGIVISPTNSKSAEEALILARRAKIPVAIADIGASGGDYVSFVKSDNYRGAYDVGTELAKAMKAQNWASGAYGMVTIELSRKNGQDRTNGFRDAMKDAGFPREIVLRQMKDYSAEETYRYVKEMLAAHPGLRGFFIETDQPVAGALRAIREAGKEKQLLLVSFDAMPDVVRLLKSGALVAVGMQQPYLMGSSAAGALVSRLRGHPPAKEILVPVLVATGRNVDQLMPVAARTVFGKPLKEGHHHHHH”: the “soluble on expression in E. coli” value was “soluble”.

With “MGRLSEVFEVRERYVPQIGRPSYLLVSLPDAGLVGSISGEFLINYLNLREYGEIYSNKHLPPISHVVNGVAKSPIRLYHYDNFLLLHSWIAIPANSINHLANLVVSYAEKYGIQTIISITGVPVPNRLDLEKPTPYWVASSEDFAKELDSLNLMKKFVEGYVSGPYAPILFQSAKKLIRNLLIVVESFLDLPDPEAAAVALDILSKMLGFKVDTSSLLKEAEEIRERIKGLMQQTRQELPNYSGLRPSTYA”, the “soluble on expression in E. coli” value is listed as “not soluble”.

On to “MFHLSSLICCGCKPNFLGFERHHPFYDNDKKRICSSECGHSLCKKCFETYKNCPICAKPLVRIDNFMAREIYAFLKKTPMIVFDMWWNRSQNPSSTGRCSTCHKYDRILRWCITCEKDLKNSEAEWRRPKIEPNTDLQKELIKVSKERFRFGILANRVICSDCFLEHHAGHRVIFLDEMISALTEYSISDSATHLVQRFLWREIEERRGKCLLRTMRMKRAFLKLFYLACDSDLTDDYNDLPKFFERLDDWKVPDGYMEKVRKNLEHQFASANVPWKDCECRYAMRIMNDMFSFKNQIEKLFVSIVNDLDLHEITECPFKNSQITDMLQKTKKMVDIQLYKLYTLFCWNNYKDGVFELFNNSNRLPTKCCLCKMSTCAECWDEEPHKCGICDDATTSSRTDPDIVVLELVKHYKENCISLLEAWWECDAAQLGFCLNCASYTEDLEICVYCELDVERSALKTEVETSAEFTKDMQLRFTYKGLSGFPMRWQCSDCTTRHRKPTADVWNKGCNHFRYRSMYASVSSECFAHNHKSPCLRLKEIKNYDLAMKAATFGLVFKIIKEGIKEHVGSEHARKEILET”, for which the “soluble on expression in E. coli” value is “not soluble”.

As to “MGSDKIHHHHHHMIKEFNATVRYLESVLESEIDEREFLRISGYSVPMFSRLFSILTDMSLSEYVRLRKLTRAAMDIREGQAKIIDIAFKYGYESSDSFAFAFKQFHQISPSQVRKGLPFKVLLPLQLSLTIQGGKEMDVRIEKKAGFTVAGLLRTAISNEVCPQVWEDLFKNHTYEELAALGSGQSFGVCTLAQADETINYMAAYDVTDSEKATKLGLELLDVHEADYAIFTLIGPVPQSIHAGWRYALETFFPEHGYRHSGAPDFEYYFEGDMSSPDYQMELWIPIVKA”, the “soluble on expression in E. coli” value was “not soluble”.

For the sequence “MGSDKIHHHHHHENLYFQGMSRKVILTCAVTGNAPFNPKHPSMPITPAQIADACVEAAKAGASVAHIHVRDPKTGGGSRDPVLFKEVVDRVRSSGTDIVLNLTCGLGAFLLPDPEDESKALPESDVVPVAERVKHLEDCLPEIASLDITTGNQVEGKLEFVYLNTTRTLRAMARRFQELGIKPELEVFSPGDILFGKQLIEEGLIDGVPLFQMVLGVLWGAPASTETMIYQRNLIPANAQWAAFGIGRDQMPMMAQAALLGGNVRVGLEDNLYLSRGVFATNGQLVERARTVIEHLGMSVATPDEARDIMGLSRPA”, the “soluble on expression in E. coli” value is recorded as “soluble”.

As to “MPCSEETPAISPSKRARPAEVGGMQLRFARLSEHATAPTRGSARAAGYDLYSAYDYTIPPMEKAVVKTDIQIALPSGCYGRVAPRSGLAAKHFIDVGAGVIDEDYRGNVGVVLFNFGKEKFEVKKGDRIAQLICERIFYPEIEEVQALDDTERGSGGFGSTGKN”, the “soluble on expression in E. coli” value is on record as “soluble”.
